The source of these data is patent US20170166655A1.

In general, Kd refers to the free concentration of one partner at which half of the binding sites on the other are occupied at equilibrium, for simple one-to-one binding. A low value points to tighter binding. For orientation: IC50 means the concentration that inhibits the measured activity by half.

In one assay the target is R131 FcγRIIa (human) (UniProt P12318). Briefly: SPR. In general terms: In SPR one partner is held on a chip, and binding of the other changes the refractive index at the surface.
The target of the next assay is FcγRI (human) (UniProt P12314). The assay is described as follows: SPR.
Another assay deals with V158 FcγRIIIa (human) (UniProt P08637). Briefly: SPR.
Another assay has as its target FcγRIIb (human) (UniProt P31994). The assay is described as follows: SPR.
The target of another assay is H131 FcγRIIa (human) (UniProt P12318). Briefly: SPR.
A further assay concerns the target F158 FcγRIIIa (human) (UniProt P08637). Briefly: SPR.
In assay [1] the target is human V158 FcγRIIIa, extracellular region (human) (UniProt P08637). Briefly: AlphaScreen competition. In general terms: In Alpha technology, singlet oxygen from a donor bead excites a nearby acceptor bead.
The target is the same in assay [2]. Briefly: SPR.
The target of assay [3] is human F158 FcγRIIIa, extracellular region (human) (UniProt P08637). The assay is described as follows: SPR.
Assay [4] addresses human FcγRIIIa on human PBMC effector cells (human) (UniProt P08637). Briefly: cell-based or functional assay.
For assay [5], the target named is human F158 FcγRIIIa, extracellular region (human) (UniProt P08637). Briefly: AlphaScreen competition.

Regarding IgG2_P233E/V234L/A235L/^235G/G327A, the dissociation constant Kd came out at 260 nM with R131 FcγRIIa (human); 0.145 nM in the assay with FcγRI (human); 73.6 nM with V158 FcγRIIIa (human); 663 nM in the assay with FcγRIIb (human); 313 nM with H131 FcγRIIa (human); 69400 nM in the assay with F158 FcγRIIIa (human).
With “IgG2_P233E/V234L/A235L/^235G/S239D/I332E”, the dissociation constant (Kd) with R131 FcγRIIa (human) was determined as 68.5 nM; with FcγRI (human), 0.0908 nM; with V158 FcγRIIIa (human), 12.4 nM; with FcγRIIb (human), 84.2 nM; in the assay with H131 FcγRIIa (human), 68.3 nM; with F158 FcγRIIIa (human), 50.2 nM.
In the case of “IgG2_P233E/V234L/A235L/^235G/S239D/I332E/G327A”, the Kd with R131 FcγRIIa (human) was 63.9 nM; with FcγRIIb (human) it was 101 nM; with H131 FcγRIIa (human), 127 nM; with F158 FcγRIIIa (human), 12.5 nM.
For IgG2_S239D/I332E/^P233EL, the dissociation constant (Kd) with R131 FcγRIIa (human) came to 64.2 nM; with FcγRI (human) it was 1.94 nM; in the assay with V158 FcγRIIIa (human) it was 21.6 nM; in the assay with FcγRIIb (human) it was 264 nM; with H131 FcγRIIa (human), 71.8 nM; with F158 FcγRIIIa (human) it was 59.6 nM.
For IgG2_S239D/I332E/^P233L, the Kd was found to be 67.4 nM with R131 FcγRIIa (human); 3.28 nM with FcγRI (human); 25.2 nM in the assay with V158 FcγRIIIa (human); 238 nM in the assay with FcγRIIb (human); 82.2 nM with H131 FcγRIIa (human); 53.2 nM in the assay with F158 FcγRIIIa (human).
Consider IgG2_S239D/I332E/^V234L, for which the Kd turned out to be 27.8 nM in the assay with R131 FcγRIIa (human); 0.634 nM in the assay with FcγRI (human); 33.7 nM with V158 FcγRIIIa (human); 95.8 nM with FcγRIIb (human); 29 nM with H131 FcγRIIa (human); 96.2 nM with F158 FcγRIIIa (human).
Consider alemtuzumab IgG1 E258H (antibody), for which the Fold WT in assay [1] worked out at 2.35 fold; in [2] it was 5.5 fold.
For the substance alemtuzumab IgG1 E258Y (antibody), the Fold WT in assay [2] is 1.77 fold.
Same read-out and setting: for alemtuzumab IgG1 E272H (antibody) the value was 384 fold.
On to alemtuzumab IgG1 E272P (antibody), for which the Fold WT came to 1.46 fold in [1] and 1.41 fold in assay [2].
Regarding alemtuzumab IgG1 E272R (antibody), the Fold WT in assay [2] is 1.38 fold.
alemtuzumab IgG1 E283H (antibody) showed a Fold WT in assay [2] of 2.31 fold.
Still for that read-out and setting: then alemtuzumab IgG1 E283L (antibody), with 2.56 fold.
On the same count and under the same terms, then alemtuzumab IgG1 H268D (antibody), with 5.66 fold; and alemtuzumab IgG1 I332D (antibody), with 11.2 fold.
With alemtuzumab IgG1 I332E (antibody), the dissociation constant (Kd) in [2] was found to be 31 nM; in assay [3] it was 72 nM.
alemtuzumab IgG1 K246H (antibody) came in with a Fold WT in assay [2] of 22.4 fold.
Take alemtuzumab IgG1 K326E (antibody): the Fold WT in [1] came out at 1.86 fold; in [2] it was 3.13 fold.
As to “alemtuzumab IgG1 N297D/A330Y/I332E (aglycosylated) (antibody)”, the fold of glycosylated WT alemtuzumab in [1] was found to be 0.4 fold.
In the case of alemtuzumab IgG1 R255Y (antibody), the Fold WT in [2] turned out to be 1.41 fold.
Regarding alemtuzumab IgG1 S239D/I332E (antibody), in [4], the ADCC EC50, DoHH-2 target cells, PBMCs V158/F158 FcγRIIIa worked out at 3 ng/mL; the ADCC Fold WT, DoHH-2 target cells, PBMCs V158/F158 FcγRIIIa was determined as 3.3 fold; the ADCC log(EC50), DoHH-2 target cells, PBMCs V158/F158 FcγRIIIa was 0.49 log(ng/ml).
“alemtuzumab IgG1 S239D/N297D/I332E (aglycosylated) (antibody)”: the fold of glycosylated WT alemtuzumab in assay [1] came to 0.8 fold.
In the case of alemtuzumab IgG1 S239E (antibody), the Fold WT in assay [1] came to 2.64 fold; in assay [2], 3.28 fold.
On to alemtuzumab IgG1 S267E (antibody), for which the Fold WT in assay [2] was determined as 2.62 fold.
As to alemtuzumab IgG1 S298A (antibody), the dissociation constant (Kd) was 52 nM in [2] and 285 nM in assay [3].
The corresponding values for “alemtuzumab IgG1 S298A/E333A/K334A (antibody)” are 39 nM and 156 nM.
For the substance alemtuzumab IgG1 S304T (antibody), the Fold WT in [2] came out at 12.8 fold.
For the substance alemtuzumab IgG1 T260H (antibody), the Fold WT in assay [2] came out at 1.86 fold.
Consider alemtuzumab IgG1 V264I (antibody), for which the Kd was found to be 64 nM in [2] and 550 nM in [3].
In assay [1], alemtuzumab IgG1 V264I/I332E (antibody) displayed a Fold WT of 12.8 fold and an IC50 of 0.5 nM. In addition, in assay [5], the Fold WT was determined as 15.6 fold and the half-maximal inhibitory concentration (IC50) was found to be 1.1 nM. Moreover, in assay [4], the ADCC EC50, DoHH-2 target cells, PBMCs V158/F158 FcγRIIIa was found to be 4 ng/mL; the ADCC Fold WT, DoHH-2 target cells, PBMCs V158/F158 FcγRIIIa amounted to 2.5 fold; the ADCC log(EC50), DoHH-2 target cells, PBMCs V158/F158 FcγRIIIa is 0.6 log(ng/ml). Also, in assay [2], the Fold WT worked out at 4 fold and the dissociation constant (Kd) worked out at 17 nM. In assay [3], this substance gave a Fold WT of 14 fold and a Kd of 52 nM.
alemtuzumab IgG1 V284E (antibody) yielded a Fold WT in assay [2] of 1.51 fold.
For the substance alemtuzumab IgG1 WT (antibody), the equilibrium dissociation constant (Kd) was determined as 68 nM in assay [2] and 730 nM in [3].
“rituximab IgG1 S298A/E333A/K334A (antibody)”: in [4], the ADCC EC50, FIG. 118b was 0.37 ng/mL; the ADCC Fold WT, FIG. 118b was 4.6 fold; the ADCC log(EC50), FIG. 118b is -0.44 log(ng/ml).
Consider rituximab IgG1 WT (antibody), for which, in assay [4], the ADCC EC50, FIG. 118b, WIL2-S target cells, human PBMCs was 1.7 ng/mL; the ADCC EC50, FIG. 118c, PBMCs F158/F158 FcγRIIIa was 5.9 ng/mL; the ADCC log(EC50), FIG. 118b, WIL2-S target cells, human PBMCs was 0.23 log(ng/ml); the ADCC log(EC50), FIG. 118c, PBMCs F158/F158 FcγRIIIa was 0.77 log(ng/ml).
For trastuzumab IgG1 A330L/I332E (antibody), in assay [4], the ADCC EC50, FIG. 117b was found to be 1.1 ng/mL; the ADCC Fold WT, FIG. 117b was found to be 10.5 fold; the ADCC log(EC50), FIG. 117b was 0.04 log(ng/ml).
With trastuzumab IgG1 A330Y/I332E (antibody), in assay [4], the ADCC EC50, FIG. 117b was found to be 0.9 ng/mL; the ADCC Fold WT, FIG. 117b came out at 12.8 fold; the ADCC log(EC50), FIG. 117b is -0.04 log(ng/ml).
In the case of trastuzumab IgG1 E272H (antibody), in [2], the Fold WT was 0.65 fold.
Regarding trastuzumab IgG1 E283L (antibody), the Fold WT is 19.9 fold in assay [1] and 3.68 fold in assay [2].
For trastuzumab IgG1 I332D (antibody), the Fold WT in assay [1] was found to be 19 fold; in [2], 2.57 fold.
Turning to trastuzumab IgG1 K334I (antibody), the Fold WT in assay [1] was 15.2 fold; in assay [2] it was 7.1 fold.
With “trastuzumab IgG1 S239D/I332E/S298A (antibody)”, the Kd in assay [2] amounted to 8.7 nM; in [3], 4.9 nM.
Turning to “trastuzumab IgG1 S298A/E333A/K334A (antibody)”, in assay [4], the ADCC EC50, FIG. 117c, PBMCs F158/F158 FcγRIIIa worked out at 0.2 ng/mL; the ADCC Fold WT, FIG. 117c, PBMCs F158/F158 FcγRIIIa was 3.6 fold; the ADCC log(EC50), FIG. 117c, PBMCs F158/F158 FcγRIIIa was -0.72 log(ng/ml).
